How the values were obtained:
purified protein = substrate: O=[N+]([O-])c1ccc(O[C@@H]2O[C@H](CO)[C@@H](O)[C@H](O)[C@H]2O)cc1; assay: purified protein; settings: recombinant free enzyme; pH and temperature of the kinetic run not given
[1] = substrate: CC1(C)CC[C@]2(C(=O)O[C@@H]3O[C@H](CO)[C@@H](O)[C@H](O)[C@H]3O)CC[C@]3(C)C(=CC[C@@H]4[C@@]5(C)CC[C@H](O[C@@H]6O[C@H](C(=O)O)[C@@H](O)[C@H](O)[C@H]6O[C@@H]6O[C@H](CO)[C@@H](O)[C@H](O)[C@H]6O)C(C)(C)[C@@H]5CC[C@]43C)[C@@H]2C1; assay: initial rate of ZR1 formation from Ro; assay type: biochemical, Paenibacillus lactis; settings: recombinant free enzyme; pH and temperature of the kinetic run not given; hydrolysis of the C-28 glucosyl ester

B1: PlGH3 (Paenibacillus lactis; K755R/M754K) (protein)
chain: MRNHTLDTINKTEETVRYVQNPGGPTLGYSEESGVGIIEQDGLFFKDLSRDGKLDNYEDWRLTPEERAKDLASKMTVEQIAGLMLYSRHQSIPALSSGWFAGTYGGKTYEESGAKPWELTDEQIAFLTKDHVRHVLVTTVESPEVAARWNNKIQAFAEGTGLGIPANNSSDPRHASDSSSEFNAGAGGHISMWPETLGLAATFDPEITKKFGMIASREYRALGLATALSPQIDIATEPRWFRFNGTFGEDSKLAADMARAYVDGFQTSEGEREIADGWGYDSVNAMVKHWPGGGSGEAGRDAHYSCGKYAVYPGNNFDEHLVPFTEGAFKLDGKTGKASAVMPYYTISLGQDTVNGENVGNSYNSYLIRDLLRGKYGYDGVVCTDWMITADVSGPKDSFLSGKPWGVEDLTVGERHYKLQMAGVDQFGGNNEIEPVLEAYKIGVREHGEAYMRERFEQSAVRLLKNMFRLGLFENPYLDPQESATLVGNPEFMREGYEAQLKSIVMLKNKNGVLPLRAKSKVYIPKRFLPPGKDWFGNPTPESYDYPVNLEVVSKYFEVTDQPDEAEFGLVFITSPKSGTGYSQEDEERGGNGYVPISLQYKPYTAEHAREISLAGDEHGNEPRNRSYKGKTVIPHNTTDLNMVLETKEKMKGKPVIVSMLLCNPTVVSEFEAEVDAILANFGVQDQAMMEVLTGAAEPSGLLPMQMPAHMRTVEEQLEDVAHDMECHVDSEKHVYDFAFGMNWGGVIEDERTKRYRRS
notes: N-terminal His tag (pET-28a, BamHI/HindIII), E. coli BL21(DE3), Ni-NTA purified
Km (purified protein): 22.76 ± 1.33 µM | kcat (purified protein): 46.18 s⁻¹ | Km [1]: 79.59 ± 3.42 µM | kcat [1]: 18.52 ± 0.28 s⁻¹

Reference: publication PMC10995091, “Novel glycosidase from Paenibacillus lactis 154 hydrolyzing the 28-O-β-D-glucopyranosyl ester bond of oleanane-type saponins” (Applied Microbiology and Biotechnology, 2024)
